Publication PMC8126837

Molecular target: human angiotensin-converting enzyme 2 (ACE2) (human) (UniProt Q9BYF1)
Experiment: FRET or BRET

Sequence of human angiotensin-converting enzyme 2 (ACE2) (human) (Q9BYF1 18-740): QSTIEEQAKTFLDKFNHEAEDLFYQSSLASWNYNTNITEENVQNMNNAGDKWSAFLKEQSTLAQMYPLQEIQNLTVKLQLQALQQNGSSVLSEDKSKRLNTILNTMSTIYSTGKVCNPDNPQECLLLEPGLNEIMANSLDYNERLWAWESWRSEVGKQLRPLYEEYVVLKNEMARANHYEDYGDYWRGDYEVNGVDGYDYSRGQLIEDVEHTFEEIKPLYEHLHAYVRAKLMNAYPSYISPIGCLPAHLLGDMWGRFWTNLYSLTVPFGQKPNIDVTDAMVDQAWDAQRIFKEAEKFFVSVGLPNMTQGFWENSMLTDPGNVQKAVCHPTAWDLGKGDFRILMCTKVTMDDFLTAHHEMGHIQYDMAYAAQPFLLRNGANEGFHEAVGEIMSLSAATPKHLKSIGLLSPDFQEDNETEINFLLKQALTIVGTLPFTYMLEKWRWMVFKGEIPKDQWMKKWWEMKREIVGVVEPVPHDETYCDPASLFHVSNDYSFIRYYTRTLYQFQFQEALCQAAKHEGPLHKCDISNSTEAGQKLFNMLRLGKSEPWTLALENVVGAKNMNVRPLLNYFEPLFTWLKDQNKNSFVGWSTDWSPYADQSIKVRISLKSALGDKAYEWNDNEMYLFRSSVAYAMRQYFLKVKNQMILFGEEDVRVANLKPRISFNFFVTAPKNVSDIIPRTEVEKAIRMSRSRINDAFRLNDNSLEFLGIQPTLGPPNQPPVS

SARS-CoV receptor-binding domain (RBD) (from UniProt P59594) (domain or fragment)
reduction in complex formation (FRET of SARS-CoV-2 RBD with ACE2): 70%
